Values belong to the binder of their own block, whether it stands above or below them.
Key:
IL1RL1 = biological target: T1, IL1RL1 (UniProt Q01638 19-328, limits assumed); assay: SPR (Carterra LSA), antibody amine-coupled
T1 construct: SPR analyte
T1 sequence (looked up): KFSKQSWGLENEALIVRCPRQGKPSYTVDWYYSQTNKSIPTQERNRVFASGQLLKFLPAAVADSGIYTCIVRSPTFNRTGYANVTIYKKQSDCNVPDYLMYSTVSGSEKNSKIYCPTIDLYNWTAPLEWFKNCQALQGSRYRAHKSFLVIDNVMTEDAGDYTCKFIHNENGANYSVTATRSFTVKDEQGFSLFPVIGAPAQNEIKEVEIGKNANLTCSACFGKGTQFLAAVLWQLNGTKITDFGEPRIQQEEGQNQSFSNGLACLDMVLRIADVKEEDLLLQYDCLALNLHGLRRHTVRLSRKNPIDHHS
Description: SPR experiments were performed on a Carterra LSA SPR biosensor equipped with a HC30M chip at 25° C. in HBS-TE. Antibodies were diluted to 10 μg/mL and amine-coupled to the sensor chip by EDC/NHS activation, followed by ethanolamine HCl quenching. Increasing concentrations of analyte were flowed over the sensor chip in HBS-TE with 0.5 mg/mL BSA with 5-minute association and 15-minute dissociation. Following each injection cycle the surface was regenerated with 2× 30-second injections of IgG elution buffer (Thermo). Data were analyzed in Carterra's Kinetics Tool software with 1:1 binding model.

[1] = biological target: T2, IL1RL1 over-expressed on Expi293 cells (UniProt Q01638 19-556, limits assumed); assay: flow cytometry, 100 nM antibody, over-expressing Expi293 / parent cells
T2 construct: whole, on cells; Target of the flow cytometry MFI ratio (over-expressing cells over parent cells); also called cytokine over-expressing Expi293 cells
T2 sequence (looked up): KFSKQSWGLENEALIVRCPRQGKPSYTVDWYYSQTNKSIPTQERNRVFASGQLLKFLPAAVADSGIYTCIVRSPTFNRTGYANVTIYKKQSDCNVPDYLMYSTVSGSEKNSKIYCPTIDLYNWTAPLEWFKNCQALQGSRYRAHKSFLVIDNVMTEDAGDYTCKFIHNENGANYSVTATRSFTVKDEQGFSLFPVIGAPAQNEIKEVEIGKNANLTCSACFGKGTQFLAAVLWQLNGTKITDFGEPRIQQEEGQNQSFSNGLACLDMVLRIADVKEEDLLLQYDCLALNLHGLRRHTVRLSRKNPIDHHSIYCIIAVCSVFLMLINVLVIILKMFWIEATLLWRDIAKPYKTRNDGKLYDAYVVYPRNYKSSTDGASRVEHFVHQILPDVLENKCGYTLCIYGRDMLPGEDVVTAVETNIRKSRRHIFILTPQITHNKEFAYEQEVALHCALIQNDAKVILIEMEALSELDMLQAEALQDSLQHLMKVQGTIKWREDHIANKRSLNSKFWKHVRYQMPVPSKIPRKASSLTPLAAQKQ
Description: All incubations and washes were in buffer containing PBS+1% BSA. MFI Ratio is defined by the mean fluorescence intensity (MFI) of the cytokine over-expressing Expi293 cell over the Expi293 parent cell. […] EC50 was calculated in GraphPad Prism.

binding result (IL1RL1): no binding
100 nM FACS (MFI Ratio) [1]: 1.25 MFI ratio
B1: IL1RL1-43 (Fc fusion, not shown: a dimerising Fc or GST)
VHH: EVQLVESGGGLVQPGGSLRLSCAASGRTYAMGWFRQAPGKEREWVASISTSGSTITPYADSVKGRFTISADNSKNTAYLQMNSLKPEDTAVYYCAANVASGLKILQWGQGTLVTVSS
notes: VHH-Fc on IgG2 Fc

binding result (IL1RL1): no binding
100 nM FACS (MFI Ratio) [1]: 0.86 MFI ratio
B2: IL1RL1-42 (Fc fusion, not shown: a dimerising Fc or GST)
VHH: EVQLVESGGGLVQPGGSLRLSCAASGFILDYYAMGWFRQAPGKEREWVSSIGIAGTPTFYADSVKGRFTISADNSKNTAYLQMNSLKPEDTAVYYCAGRLSNGLDWGQGTLVTVSS
notes: VHH-Fc on IgG2 Fc

Reference: patent US20230265179A1 (TWIST BIOSCIENCE, published 2023)
